The text below walks through data of US20240132578A1.

What all share (test): cell-based or functional assay
Assay [1] concerns the target HIV-1 CMU02 envelope protein (Env) on pseudovirus (HIV-1).
Assay [2] deals with HIV-1 Env of isolate MGRM-A-005 (pseudovirus) (HIV-1).
The target in assay [3] is HIV-1 Env of isolate MGRM-A-006 (pseudovirus) (HIV-1).
Assay [4] concerns the target HIV-1 Env of isolate MGRM-AE-002 (subtype AE) (HIV-1).
Assay [5] concerns the target HIV-1 Env of isolate MGRM-AG-001 (subtype AG) (HIV-1).
The target of assay [6] is HIV-1 Env of isolate MGRM-AG-011 (subtype AG) (HIV-1).
Assay [7] addresses HIV-1 Env of isolate MGRM-AG-013 (subtype AG) (HIV-1).
Assay [8] has as its target HIV-1 Env of isolate MGRM-D-004 (pseudovirus) (HIV-1).
The target of assay [9] is HIV-1 Env of isolate MGRM-D-013 (pseudovirus) (HIV-1).
In assay [10] the target is HIV-1 JR-CSF Env N301A (HIV-1 (isolate JR-CSF, clade B)) (UniProt P20871).

In turn, 5147_N06 (PGT-130) (antibody) had an IC50 (ug/mL), pseudovirus neutralization in assay [1] of more than 10 µg/mL. The IC50 (µg/mL), pseudovirus neutralization in assay [2] was more than 50 µg/mL; in assay [3] it was more than 50 µg/mL; in assay [8], 1.21 µg/mL; in [9], 0.429 µg/mL. Also, the IC50, pseudovirus neutralization in [4] is 1.53 µg/mL; in [5], more than 50 µg/mL; in [6] it was more than 50 µg/mL; in assay [7], 0.01 µg/mL. Besides, in assay [10], the Fold IC50 increase relative to wild-type is more than 1000 fold.
